Values belong to the molecule of their own block, whether it stands above or below them.
What was measured:
[1] = target: T1, ThdF (Streptomyces albogriseolus, UniProt A0A1B1V585); experiment: fluorescence anisotropy; crystal structures ([…] and […] Å) with two FAD per chain; format: binding
T1 construct: apoThdF (full length) for Kd; elastase-digested ThdF, residues about 7-167 built, for crystals
T1 sequence (A0A1B1V585 1-193): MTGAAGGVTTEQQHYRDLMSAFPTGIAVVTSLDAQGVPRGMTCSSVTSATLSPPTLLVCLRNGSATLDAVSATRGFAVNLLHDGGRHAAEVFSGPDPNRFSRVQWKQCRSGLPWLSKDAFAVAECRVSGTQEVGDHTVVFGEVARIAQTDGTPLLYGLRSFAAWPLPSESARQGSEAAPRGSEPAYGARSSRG

[2] = target: T2, ThdF (Streptomyces albogriseolus, UniProt A0A1B1V585); experiment: steady-state inhibition kinetics (NADH turnover at […] nm); format: biochemical
[3] = target: ThdF after in situ proteolysis with elastase, as crystallised (crystal forms 1 and 2) (Streptomyces albogriseolus); experiment: crystal structure; ThdF with elastase (in situ proteolysis), sitting drop, 20 °C; crystal form 1 (P212121) and form 2 (P21) with two FAD per chain, and form 1 soaked with NADH and dithionite; four molecules per asymmetric unit
[4] = target: T2, ThdF; experiment: steady-state product inhibition kinetics; format: biochemical
[5] = substrate: NC(=O)C1=CN([C@@H]2O[C@H](COP(=O)(O)OP(=O)(O)OC[C@H]3O[C@@H](n4cnc5c(N)ncnc54)[C@H](O)[C@@H]3O)[C@@H](O)[C@H]2O)C=CC1; experiment: purified protein
[6] = target: the molecule itself; experiment: crystal structure; full-length ThdF without protease, initial screening, 2.9 Å; not fully refined and not deposited
[7] = substrate: Cc1cc2nc3c(=O)[nH]c(=O)nc-3n(C[C@H](O)[C@H](O)[C@H](O)COP(=O)(O)O)c2cc1C; experiment: steady-state kinetics, KM as variable substrate; format: biochemical, Streptomyces albogriseolus; conditions: NADH

Kd [1]: 6.8 ± 0.2 µM
Molecule: Cc1cc2nc3c(=O)[nH]c(=O)nc-3n(C[C@H](O)[C@H](O)[C@H](O)COP(=O)(O)OP(=O)(O)OC[C@H]3O[C@@H](n4cnc5c(N)ncnc54)[C@H](O)[C@@H]3O)c2cc1C [FAD]

Molecule: NC(=O)c1ccc[n+]([C@@H]2O[C@H](COP(=O)([O-])O)[C@@H](O)[C@H]2O)c1 [NMN]
steady-state inhibition kinetics (NADH turnover at 340 nm) [2]: The NADH-dependent measurement with NMN showed intersecting lines on the ordinate, confirming competitive inhibition toward NADH

stoichiometry N [3]: 2
Molecule: ThdF after in situ proteolysis with elastase, as crystallised (crystal forms 1 and 2) (from UniProt A0A1B1V585 6-171) (domain or fragment)

Molecule: Nc1ncnc2c1ncn2[C@@H]1O[C@H](COP(=O)(O)O)[C@@H](O)[C@H]1O [AMP]
steady-state inhibition kinetics (NADH turnover at 340 nm) [2]: The lines intersecting on the ordinate indicate competitive inhibition of NADH by AMP.

Molecule: NC(=O)c1ccc[n+]([C@@H]2O[C@H](COP(=O)([O-])OP(=O)(O)OC[C@H]3O[C@@H](n4cnc5c(N)ncnc54)[C@H](O)[C@@H]3O)[C@@H](O)[C@H]2O)c1 [NAD^+]
steady-state product inhibition kinetics [4]: For both substrates, NAD^+ was found to produce a noncompetitive inhibition pattern

B1: ThdF (Streptomyces albogriseolus) (protein)
chain: GGVTTEQQHYRDLMSAFPTGIAVVTSLDAQGVPRGMTCSSVTSATLSPPTLLVCLRNGSATLDAVSATRGFAVNLLHDGGRHAAEVFSGPDPNRFSRVQWKQCRSGLPWLSKDAFAVAECRVSGTQEVGDHTVVFGEVARIAQTDGTPLLYGLRSFAAWPLPSESA
Km [5]: 19.5 ± 5.6 µM
kcat ([5]; FAD binds instead of the stacked FAD, R16 contacts the NMN ribose, H136 of the GDH motif the nicotinamide, S48 of the second protomer): 0.26 s⁻¹

B2: NADH-dependent flavin reductase ThdF from Streptomyces albogriseolus, full length, His6-tag removed by TEV protease (enzyme, UniProt A0A1B1V585 1-193, looked up)
chain: MTGAAGGVTTEQQHYRDLMSAFPTGIAVVTSLDAQGVPRGMTCSSVTSATLSPPTLLVCLRNGSATLDAVSATRGFAVNLLHDGGRHAAEVFSGPDPNRFSRVQWKQCRSGLPWLSKDAFAVAECRVSGTQEVGDHTVVFGEVARIAQTDGTPLLYGLRSFAAWPLPSESARQGSEAAPRGSEPAYGARSSRG
notes: flavin reductase ThdF of the thienodoline biosynthetic gene cluster, Streptomyces albogriseolus; 193 residues (truncation to 1-168 removed amino acids 169-193); residual amino acids from TEV protease digestion are left at the N terminus; Codon-optimised synthetic gene in pETM-11; copurifies with FAD (occupancy about 124%); the PDB entries 9fd4-9fd6 come from this protein after elastase digestion; …
stoichiometry N [6]: 2
Km [7]: 0.28 ± 0.07 µM
kcat [7]: 0.2 ± 0.08 s⁻¹

Source: paper PMC11795597, “The NADH-dependent flavin reductase ThdF follows an ordered sequential mechanism though crystal structures reveal two FAD molecules in the active site” (The Journal of Biological Chemistry, 2024)
